Patent publication US20250197488A1 (MABWELL SHANGHAI BIOSCIENCE, published 2025)
Numbering of substitutions follows the chain as printed.

T1: human IL-11 (AAH12506.1, Pro22-Leu199) (human, UniProt P20809 22-199)
T1 construct: The range Pro22-Leu199 counts on AAH12506.1; The Octet runs say only 'human IL-11'; also called hIL-11
T1 chain: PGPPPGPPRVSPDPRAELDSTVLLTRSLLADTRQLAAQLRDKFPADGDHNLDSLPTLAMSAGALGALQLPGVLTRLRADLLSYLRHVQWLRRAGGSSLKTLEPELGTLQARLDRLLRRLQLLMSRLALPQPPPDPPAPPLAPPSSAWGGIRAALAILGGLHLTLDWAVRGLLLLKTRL

T2: IL-11 (Cat. 12225-HNCE, Sino Biological Inc.) (UniProt P20809 22-199, limits assumed)
T2 sequence (looked up): T1 chain with L154H

B1: hz18A10-VHm5 + hz18A10-VLm9 (antibody, V domains shown)
VH: EVQLVQSGAEVKKPGASVKVSCKASGYTFITYNMDWVRQAPGQGLEWMGTIYPGNGDTSYNQKFKGRVTMTRDTSTSTAYMELSSLRSEDTAVYYCARADLHFLDYWGQGTLVTVSS
VL: DIQMTQSPSSLSASVGDRVTITCKASQSVYSDVAWYQQKPGKAPKLLIYSASNRYTGVPSRFSGSGSGTDFTFTISSLQPEDIATYYCQHDYSSPYTFGQGTKLEIK
notes: Constant regions not restated for this antibody
B2: hz18A10-VHm9 + hz18A10-VLm19 (antibody, V domains shown)
VH: B1 VH with I30T, N33D, D35S, A79V, A99G, H102Y, F103A
VL: B1 VL with S31R
notes: as for B1
B3: hz18A10-VHm16 + hz18A10-VLm19 (antibody, V domains shown)
VH: B1 VH with I30T, T31H, N33D, G56A, A79V, A99G, H102Y, F103A
VL: B1 VL with S31R
notes: as for B1
B4: hz18A10-VHm8 + hz18A10-VLm19 (antibody, V domains shown)
VH: B1 VH with I30T, N33D, D35H, A79V, A99G, H102Y, F103A
VL: B1 VL with S31R
notes: as for B1
B5: hz18A10-VHm10 + hz18A10-VLm19 (antibody, V domains shown)
VH: B1 VH with I30N, T31H, A79V, A99G, H102Y, F103A
VL: B1 VL with S31R
notes: as for B1
B6: hz18A10-VHm20 + hz18A10-VLm19 (antibody, V domains shown)
VH: B1 VH with I30T, T31H, N55Q, A79V, A99G, H102Y, F103A
VL: B1 VL with S31R
notes: as for B1
B7: hz18A10-VHm11 + hz18A10-VLm19 (antibody, V domains shown)
VH: B1 VH with I30T, T31H, A79V, A99G, H102Y, F103A
VL: B1 VL with S31R
notes: as for B1
B8: hz18A10-VHm17 + hz18A10-VLm19 (antibody, V domains shown)
VH: B1 VH with I30T, T31H, N33D, N55E, A79V, A99G, H102Y, F103A
VL: B1 VL with S31R
notes: as for B1
B9: hz18A10-VHm6 + hz18A10-VLm9 (antibody, V domains shown)
VH: B1 VH with I30N, T31H, N33D, A79V, A99G, H102Y, F103A
VL: B1 VL
notes: as for B1
B10: hz18A10-VHm14 + hz18A10-VLm19 (antibody, V domains shown)
VH: B1 VH with I30T, T31H, N33Q, A79V, A99G, H102Y, F103A
VL: B1 VL with S31R
notes: as for B1
B11: hz18A10-VHm15 + hz18A10-VLm19 (antibody, V domains shown)
VH: B1 VH with I30T, T31H, N33S, A79V, A99G, H102Y, F103A
VL: B1 VL with S31R
notes: as for B1
B12: hz18A10-VHm7 + hz18A10-VLm19 (antibody, V domains shown)
VH: B1 VH with I30T, N33D, M34I, A79V, A99G, H102Y, F103A
VL: B1 VL with S31R
notes: as for B1
B13: hz18A10-VHm13 + hz18A10-VLm19 (antibody, V domains shown)
VH: B1 VH with I30T, T31H, N33E, A79V, A99G, H102Y, F103A
VL: B1 VL with S31R
notes: as for B1
B14: hz18A10-VHm6 + hz18A10-VLm19 (antibody, V domains shown)
VH: B1 VH with I30N, T31H, N33D, A79V, A99G, H102Y, F103A
VL: B1 VL with S31R
notes: as for B1
B15: hz18A10-VHm18 + hz18A10-VLm19 (antibody, V domains shown)
VH: B1 VH with I30T, T31H, N55E, A79V, A99G, H102Y, F103A
VL: B1 VL with S31R
notes: as for B1
B16: hz18A10-VHm12 + hz18A10-VLm19 (antibody, V domains shown)
VH: B1 VH with I30T, T31H, N33D, A79V, A99G, H102Y, F103A
VL: B1 VL with S31R
notes: as for B1
B17: hz8C8-VHm1 + hz8C8-VL (antibody, human IgG1, kappa, V domains shown)
VH: EVQLVESGGGLVQPGGSLRLSCAASGFTFSSFGMHWVRQAPGKGLEWVAYITPGSNTIYYADTVKGRFTISRDNAKNSLYLQMNSLRAEDTAVYYCAREYYSYDEGFAYWGQGTLVTVSS
VL: EIVLTQSPATLSLSPGERATLSCSVSSSISSNYLHWYQQKPGQAPRLLIYRTSNLASGIPARFSGSGSGTDFTLTISSLEPEDFAVYYCQQGVDVPFTFGQGTKLEIKR
notes: human IgG1 constant regions
B18: hz8C8-VHm1 + hz8C8-VLm1 (antibody, human IgG1, kappa, V domains shown)
VH: B17 VH
VL: B17 VL with S30P
notes: human IgG1 constant regions
B19: hz8C8-VHm1 + hz8C8-VLm3 (antibody, human IgG1, kappa, V domains shown)
VH: B17 VH
VL: B17 VL with S28L
notes: human IgG1 constant regions
B20: hz8C8-VHm1 + hz8C8-VLm2 (antibody, human IgG1, kappa, V domains shown)
VH: B17 VH
VL: B17 VL with N32K
notes: human IgG1 constant regions

Target: T1, human IL-11 (AAH12506.1, Pro22-Leu199)
Experiment: BLI (Octet), antibody captured, human IL-11 in solution
Method in brief: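 Bio-layer interferometry on a Fortebio Octet QKe System. Antibodies (hybridoma supernatant or purified, diluted in HBS-EP+ buffer) were captured on anti-mouse IgG Fc (AMC) or anti-human Fc (AHC) biosensors. Human IL-11 at 300 nM in HBS-EP+ buffer flowed over, with 300 seconds association and 300 seconds dissociation. Blank-subtracted curves were fitted to a 1:1 Langmuir binding model to derive kon, koff and Kd.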

| Kd | koff | kon | Binder |
| --- | --- | --- | --- |
| 1.15 nM | 0.000732 s⁻¹ | 639000 M⁻¹ s⁻¹ | B1 |
| 0.538 nM | 0.000448 s⁻¹ | 833000 M⁻¹ s⁻¹ | B2 |
| 0.0956 nM | 0.00012 s⁻¹ | 1.26e+06 M⁻¹ s⁻¹ | B3 |
| 1.44 nM | 0.0011 s⁻¹ | 760000 M⁻¹ s⁻¹ | B4 |
| 0.235 nM | 0.000216 s⁻¹ | 917000 M⁻¹ s⁻¹ | B5 |
| 0.22 nM | 0.000227 s⁻¹ | 1.03e+06 M⁻¹ s⁻¹ | B6 |
| 0.138 nM | 0.000119 s⁻¹ | 862000 M⁻¹ s⁻¹ | B7 |
| 0.00708 nM | 8.23e-06 s⁻¹ | 1.16e+06 M⁻¹ s⁻¹ | B8 |
| 0.00718 nM | 7.17e-06 s⁻¹ | 999000 M⁻¹ s⁻¹ | B9 |
| 0.678 nM | 0.000485 s⁻¹ | 716000 M⁻¹ s⁻¹ | B10 |
| 0.346 nM | 0.000263 s⁻¹ | 760000 M⁻¹ s⁻¹ | B11 |
| 0.105 nM | 0.000113 s⁻¹ | 1.08e+06 M⁻¹ s⁻¹ | B12 |
| 0.203 nM | 0.000148 s⁻¹ | 729000 M⁻¹ s⁻¹ | B13 |
| 0.213 nM | 0.000194 s⁻¹ | 911000 M⁻¹ s⁻¹ | B14 |
| 0.313 nM | 0.000354 s⁻¹ | 1.13e+06 M⁻¹ s⁻¹ | B15 |
| 0.185 nM | 0.000173 s⁻¹ | 934000 M⁻¹ s⁻¹ | B16 |

Target: T1, human IL-11 (AAH12506.1, Pro22-Leu199)
Experiment: BLI (Octet), antibody captured, human IL-11 in solution
Remark: another data set of the same source
Procedure: The affinity of the murine antibodies purified from the hybridoma supernatants was determined using an Octet QKe System instrument from Fortebio Inc. with an anti-mouse IgG Fc Capture biosensor to capture the Fc fragments of the antibodies, for which an anti-IL-11 antibody named “3C6-mFc” recombinantly expressed was used at the same concentration as a positive control. Specifically, a hybridoma supernatant was diluted with HBS-EP+ buffer (GE), and was allowed to pass through the surface of AMC probes (Cat: 18-5088, PALL), and so the antibody in the hybridoma supernatant was captured on the surface of the probes; then, human IL-11 diluted in the HBS-EP+ buffer (300 nM) was used as a mobile phase to react with the antibody captured on the surface of the probes. Both the binding and the dissociating were conducted for 300 seconds. When the experiment was finished, data from which response values of blank controls had been deducted was fitted using a 1:1 Langmuir binding model by software, and then kinetic constants for antigen-antibody binding were calculated. Binding signals were detected on the Octet QKe System instrument with Hy5C2, Hy8C8, Hy16B5, Hy18A10, and Hy18H10.
The affinity of hz18A10 and hz8C8 was determined according to the method provided in Example 1 using AHC bioprobes for capturing human Fc fragment instead, with other conditions unchanged. A recombinantly expressed anti-IL-11 antibody 3C6-hFc was used at the same concentration as a positive control.
(§1) Then, light and heavy chain expression vectors for preparing mutant antibodies were constructed according to the method for preparing the recombinant antibodies provided in Example 4, using the mutant sequences shown in Table 3 which accordingly were linked with human IgG1 constant regions (SEQ ID NO. 13, and SEQ ID NO.14). Subsequently, the light chain and the heavy chain were reasonably matched and co-transfected into eukaryotic cells for transient expression, and then recombination protein samples of the mutant antibodies were obtained through affinity purification. The samples obtained were tested for affinity on Fortebio Octet, according to the method for measuring affinity provided in Example 1.

| Kd | koff | kon | Binder |
| --- | --- | --- | --- |
| 0.613 nM | 0.000472 s⁻¹ | 770000 M⁻¹ s⁻¹ | B17 |
| 0.178 nM | 0.000125 s⁻¹ | 705000 M⁻¹ s⁻¹ | B18 |
| 0.636 nM | 0.000496 s⁻¹ | 780000 M⁻¹ s⁻¹ | B19 |
| 0.388 nM | 0.000229 s⁻¹ | 590000 M⁻¹ s⁻¹ | B20 |

Target: T2, IL-11 (Cat. 12225-HNCE, Sino Biological …)
Experiment: cell-based or functional assay

| Blocking activity (IC50), STAT3-luc reporter | Binder |
| --- | --- |
| 2.13 µg/mL | B17 |
| 0.804 µg/mL | B18 |
| 0.125 µg/mL | B19 |
| 0.038 µg/mL | B20 |
| 11.6 µg/mL | B1 |
| 0.99 µg/mL | B2 |
| 0.034 µg/mL | B3 |
| 8.64 µg/mL | B4 |
| 0.136 µg/mL | B5 |
| 0.061 µg/mL | B6 |
| 0.112 µg/mL | B7 |
| 0.013 µg/mL | B8 |
| 0.034 µg/mL | B9 |
| 1.03 µg/mL | B10 |
| 0.511 µg/mL | B11 |
| 1.22 µg/mL | B12 |
| 0.338 µg/mL | B13 |
| 0.017 µg/mL | B14 |
| 0.79 µg/mL | B15 |
| 0.011 µg/mL | B16 |

Target: T2, IL-11 (Cat. 12225-HNCE, Sino Biological …)
Experiment: competition ELISA, IL-11/IL-11Rα/GP130 complex
Procedure: The activity of the recombinant murine anti-IL-11 antibodies for blocking the formation of IL-11/IL-11Rα/GP130 complex was analyzed via competition ELISA. IL-11Rα-His (NP_004503.1, Met1-Val363, C-terminus-6-His Tag) was firstly added into ELISA plates to be coated overnight. Next day, samples were prepared as follows. […] After co-incubating and washing, an HRP conjugated anti-human Fc secondary antibody was added to develop the color which was then detected.
as §1, with “1. Further, using the protocol provided in Example 3, hz8C8 and its affinity matured mutants were analyzed for their activity for blocking the formation of IL-11/IL-11Rα/GP130 complex.” for “1.”

| IC50 | Binder |
| --- | --- |
| 2.09 µg/mL | B17 |
| 1.24 µg/mL | B18 |
| 0.943 µg/mL | B19 |
| 1.14 µg/mL | B20 |
